Assay results published in patent publication US7785825B2, “Compositions and methods for dehydration and cyclization of peptides, synthetic compounds, and lantibiotics” (priority 2004, dated 2010).

What was measured:
[1] = molecular target: LctM (Lactococcus lactis subsp. lactis, UniProt P37609); test: LctM activity assay: dehydration and cyclization of peptide substrates, read out by MS; format: biochemical, Lactococcus lactis CNRZ 481; settings: for effect on LctM processing of His6-LctA: ATP analog in place of ATP, EDTA added; for number of dehydrations after incubation with LctM: MALDI-MS / ESI-FTMS of product
Chain of LctM (P37609 whole entry): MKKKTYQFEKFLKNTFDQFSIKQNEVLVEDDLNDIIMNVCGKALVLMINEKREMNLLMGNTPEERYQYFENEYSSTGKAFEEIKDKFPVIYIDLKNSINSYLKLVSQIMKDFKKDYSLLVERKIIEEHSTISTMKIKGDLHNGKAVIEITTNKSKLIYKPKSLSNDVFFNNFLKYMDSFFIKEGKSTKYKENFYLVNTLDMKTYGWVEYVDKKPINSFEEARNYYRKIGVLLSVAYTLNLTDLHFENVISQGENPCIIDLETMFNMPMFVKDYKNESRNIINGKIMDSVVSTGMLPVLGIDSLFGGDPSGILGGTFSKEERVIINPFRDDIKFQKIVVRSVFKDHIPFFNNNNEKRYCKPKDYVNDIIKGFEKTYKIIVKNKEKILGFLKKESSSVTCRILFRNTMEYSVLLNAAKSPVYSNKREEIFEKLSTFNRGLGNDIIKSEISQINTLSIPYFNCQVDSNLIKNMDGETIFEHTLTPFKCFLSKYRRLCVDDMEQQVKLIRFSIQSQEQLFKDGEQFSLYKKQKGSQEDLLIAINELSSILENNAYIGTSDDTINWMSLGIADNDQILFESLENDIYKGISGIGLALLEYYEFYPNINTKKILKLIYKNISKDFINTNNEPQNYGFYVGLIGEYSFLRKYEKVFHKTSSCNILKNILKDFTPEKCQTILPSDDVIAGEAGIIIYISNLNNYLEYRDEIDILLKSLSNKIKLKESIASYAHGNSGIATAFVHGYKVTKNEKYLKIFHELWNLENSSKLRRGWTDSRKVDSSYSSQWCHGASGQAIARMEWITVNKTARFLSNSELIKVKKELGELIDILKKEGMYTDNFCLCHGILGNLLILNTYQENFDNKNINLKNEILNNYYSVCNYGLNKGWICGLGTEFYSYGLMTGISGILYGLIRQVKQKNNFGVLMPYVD
From the text: For MALDI MS analysis, 1 microL of the assay sample was mixed with 9 microL of sinapinic acid pre-dissolved in MeCN:H2O (2:1) in 0.1% TFA and 1 microL of the mixture was applied on the MALDI target. MALDI MS calcd. […] ESI-FT-MS for the major product: mass calcd.

[2] = molecular target: His6-LctA (Lactococcus lactis CNRZ 481)
[3] = molecular target: His6-LctA-T48S (Lactococcus lactis CNRZ 481)
[4] = molecular target: LctMutA (Artificial Sequence)
[5] = molecular target: LctRumA (Artificial Sequence)
[6] = molecular target: MutA (His-tagged mutacin II prepeptide) (Artificial)
[7] = molecular target: LctMutAK (Artificial Sequence)
[8] = test system: methicillin-resistant Staphylococcus aureus (MRSA); settings: cited from earlier work
[9] = test system: L. lactis CNRZ 117; test: Bioassay for lantibiotic activity (solid agar diffusion); format: cell-based, Lactococcus lactis; settings: agar diffusion assay, lacticin 481-sensitive indicator strain L. lactis CNRZ 117
Procedure: The lyophilized assay product (˜0.1 microg) was redissolved in 6 microL of Millipore water. To the solution, 4 microL of a solution of Lys-C in 100 mM Tris, pH 8.5 (0.4 ng/microL) was added and the mixture was incubated at 37° C. for 3 h. The resulting mixture was checked by MALDI-TOF MS. Three fragments were expected and two were observed: calcd, 2310 ([1-21]), 2591 ([22-44]), 2773 ([45-70]); found, 2593 ([22-44]), 2775 ([45-70]).
Inhibitory activity was assayed by the solid agar medium test. A GM17 agar plate was seeded with the test strain by mixing 100 mL of liquid GM17 agar at 50° C. with 1.5 mL of an overnight culture. After agar solidification, wells were created in the medium and the samples were added to the wells. The activity of the starting peptide, LctM-product, and the product and starting peptide treated with Lys-C were determined using a solid agar diffusion bioassay with indicator strain L. lactis CNRZ 117 (See FIG. 5).
FIG. 5 illustrates a bioassay for lantibiotic activity. Small aliquots of the following samples were added in the wells: (1) His6-LctA (SEQ ID NO:4), (2) His6-LctA treated with Lys-C, (3) His6-LctA modified by LctM, (4) His6-LctA modified by LctM and treated with Lys-C, (5) cell free broth of L. lactis CNRZ 117, (6) cell free broth of L. lactis CNRZ 481 containing lacticin 481, (7) 50 mM Tris buffer, pH 8.5, (8) Lys-C in 50 mM Tris buffer, pH 8.5.

[10] = molecular target: T1, protease domain of LctT (GST-Lpd) (Lactococcus lactis subsp. lactis, UniProt P37608); test: Leader cleavage by the LctT protease domain (GST-Lpd); format: biochemical, Lactococcus lactis CNRZ 481; settings: MALDI-TOF MS
T1 sequence (P37608 whole entry, looked up): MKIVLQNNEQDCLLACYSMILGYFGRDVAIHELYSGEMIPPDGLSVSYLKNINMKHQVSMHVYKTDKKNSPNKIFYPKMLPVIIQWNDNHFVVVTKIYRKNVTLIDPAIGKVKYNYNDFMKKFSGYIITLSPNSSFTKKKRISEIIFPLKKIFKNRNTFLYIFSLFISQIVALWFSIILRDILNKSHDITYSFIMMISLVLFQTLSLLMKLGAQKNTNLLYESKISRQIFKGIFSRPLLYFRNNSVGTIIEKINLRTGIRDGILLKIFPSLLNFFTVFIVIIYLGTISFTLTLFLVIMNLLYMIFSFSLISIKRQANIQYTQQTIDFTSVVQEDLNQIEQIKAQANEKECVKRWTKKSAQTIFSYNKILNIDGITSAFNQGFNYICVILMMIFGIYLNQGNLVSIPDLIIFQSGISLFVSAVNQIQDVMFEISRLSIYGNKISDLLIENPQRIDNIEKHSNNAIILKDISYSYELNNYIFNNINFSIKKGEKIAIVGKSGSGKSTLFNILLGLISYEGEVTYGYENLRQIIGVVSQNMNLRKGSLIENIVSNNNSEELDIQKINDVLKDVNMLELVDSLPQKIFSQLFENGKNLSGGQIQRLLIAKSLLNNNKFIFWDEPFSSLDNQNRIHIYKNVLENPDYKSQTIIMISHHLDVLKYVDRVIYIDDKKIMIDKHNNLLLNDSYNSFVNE
Procedure: Cleavage of His-LctA and His-pro-Lacticin. The unmodified His-LctA substrate was either directly incubated with GST-Lpd or first modified by LctM prior to incubation with the protease. Assay mixtures typically contained substrate (50-500 μg), GST-Lpd (35-70 μg) and a buffer consisting of 200 mM NaPi, pH 7.5, 200 mM Na2SO4 and 5 mM DTT. Assays were incubated at 37° C. for 12 h and analyzed by MALDI-TOF MS. Both unmodified and modified His-LctA were substrates for GST-Lpd as determined by MALDI-TOF MS and sensitivity of indicator strain Lactococcus lactis 117 towards the modified substrate after cleavage. See FIG. 83 which illustrates LctT as a bifunctional protein including the proteolytic domain.

O=C(O)CN(CCN(CC(=O)O)CC(=O)O)CC(=O)O [EDTA]
effect on LctM processing of His6-LctA [1]: abolished the reaction

His6-LctM (lacticin 481 synthetase LctM with N-terminal His6-tag) (enzyme)
dehydration and cyclization of the substrate (ESI-FTMS, MS/MS) [2]: > 80% | dehydration of the substrate (MS) [3]: 4 dehydrations | dehydration of the substrate [4]: 4 dehydrations | dehydration of the substrate [5]: 4 dehydrations | dehydration of the substrate [6]: 4 dehydrations | dehydration of the substrate [7]: 4 dehydrations

Nc1ncnc2c1ncn2[C@@H]1O[C@H](COP(=O)(O)OP(=O)(O)NP(=O)(O)O)[C@@H](O)[C@H]1O [AMP-PNP]
effect on LctM processing of His6-LctA [1]: completely abolished

Nc1ncnc2c1ncn2[C@@H]1O[C@H](CO[P@](=O)(O)O[P@](=O)(O)O[P@@](=O)(O)S)[C@@H](O)[C@H]1O [ATP-gamma-S]
effect on LctM processing of His6-LctA [1]: less efficient

Nc1ncnc2c1ncn2[C@@H]1O[C@H](COP(=O)(O)OP(=O)(O)CP(=O)(O)O)[C@@H](O)[C@H]1O [AMP-PCP]
effect on LctM processing of His6-LctA [1]: completely abolished

mersacidin
cytotoxic activity against MRSA [8]: comparable cytotoxic activity

B1: His6-LctA (peptide)
peptide: GSSHHHHHHSSGLVPRGSHMKEQNSFNLLQEVTESELDLILGAKGGSGVIHTISHECNMNSWQFVFTCCS
antimicrobial activity (zone of inhibition) [9]: No antimicrobial activity was detected | number of dehydrations after incubation with LctM [1]: four | substrate converted to M-72 product ([1]; treatment with LctM for 1 hour): more than 80% | cleavage of the leader by the LctT protease domain [10]: substrates

B2: His6-LctA modified by LctM: fully processed product, lacticin 481 fused to its leader peptide (peptide)
peptide: GSSHHHHHHSSGLVPRGSHMKEQNSFNLLQEVTESELDLILGAKGGSGVIHTISHECNMNSWQFVFTCCS
modifications: not fully specified (residues 52, 54, 61, 67, bridges)
antimicrobial activity (zone of inhibition) [9]: No antimicrobial activity was detected | cleavage of the leader by the LctT protease domain [10]: substrates

B3: LctMutA: His-tag, LctA leader and mutacin II structural region (peptide)
chain: GSSHHHHHHSSGLVPRGSHMLEMKEQNSFNLLQEVTESELDLILGANRWWQGVVPTVSYECRMNSWQHVFTCC
number of dehydrations after incubation with LctM [1]: 4 | cleavage of the leader by the LctT protease domain [10]: can remove the leader peptide and the His-tag
